Test results published in patent US20110117021A1 (BIOTIE THERAPIES, published 2011).
Numbering of substitutions follows the chain as printed.

T1: recombinant human Vascular Adhesion Protein-1 (rhVAP-1), purified from CHO cells (human, UniProt Q16853 1-763, limits assumed)
T1 construct: also called recombinant human VAP-1
T1 sequence (looked up): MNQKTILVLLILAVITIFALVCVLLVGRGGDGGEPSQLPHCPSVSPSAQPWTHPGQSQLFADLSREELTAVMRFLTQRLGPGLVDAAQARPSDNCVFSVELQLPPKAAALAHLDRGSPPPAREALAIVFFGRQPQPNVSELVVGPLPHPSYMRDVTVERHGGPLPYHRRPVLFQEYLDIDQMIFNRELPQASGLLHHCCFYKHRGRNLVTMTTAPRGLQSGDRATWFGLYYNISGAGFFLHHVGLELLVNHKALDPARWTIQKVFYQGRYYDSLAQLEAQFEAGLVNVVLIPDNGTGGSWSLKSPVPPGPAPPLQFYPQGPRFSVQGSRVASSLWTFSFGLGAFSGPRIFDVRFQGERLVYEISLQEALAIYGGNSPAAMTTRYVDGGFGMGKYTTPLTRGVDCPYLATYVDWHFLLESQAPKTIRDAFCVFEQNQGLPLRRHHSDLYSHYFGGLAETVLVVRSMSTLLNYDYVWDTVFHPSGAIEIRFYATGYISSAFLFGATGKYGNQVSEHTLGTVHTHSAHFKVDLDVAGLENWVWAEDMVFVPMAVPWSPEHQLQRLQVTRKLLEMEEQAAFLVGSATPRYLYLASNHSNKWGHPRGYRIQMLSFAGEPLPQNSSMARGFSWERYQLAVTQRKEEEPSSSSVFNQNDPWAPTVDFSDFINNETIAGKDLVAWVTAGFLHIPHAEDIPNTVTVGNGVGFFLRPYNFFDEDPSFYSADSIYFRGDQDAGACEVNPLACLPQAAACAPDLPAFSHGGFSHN

B1: fully human anti-VAP-1 monoclonal antibody 8A4 (hybridoma-derived) (antibody, human IgG1, V domains shown)
VH: EVQLVESGGGLVQPGGSLRLSCAASGFIFSNYWMSWVRQAPGKGLEWVANIKQDGSEKYYVDSVRGRFTVSRDNAKNSLYLQMNSLRAEDTAVYYCARDYFGSGTYFFYFDYWGQGTLVTFSS
VL: EIVLTQSPATLSLSPGERATLSCRASQSVSSYLAWYQQKPGQAPRLLIYDASNRATGIPARFSGSGSGTDFTLTISSLEPEDFAVYYCQQRSNWPLTFGGGTKVEIK
B2: fully human anti-VAP-1 monoclonal antibody 4B3 (hybridoma-derived) (antibody, human IgG1, V domains shown)
VH: EVQLVQSGGGLVHPGGSLRLSCAGSGFPVSSYGMHWVRQAPGKGLEWVSAIGVGGGTYHVDSVKGRFTISRDNAKNSLYLQMNSLRAGDMAVYYCARDPGFGEVYFDYWGQGTLVTVSS
VL: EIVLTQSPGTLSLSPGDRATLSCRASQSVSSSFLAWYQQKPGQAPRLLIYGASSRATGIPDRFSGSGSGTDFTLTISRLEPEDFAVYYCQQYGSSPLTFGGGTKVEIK
B3: fully human anti-VAP-1 monoclonal antibody 8C10 (hybridoma-derived) (antibody, human IgG1, V domains shown)
VH: QVQLVESGGGVVQPGRSLRLSCAASGFTFFSYAMHWVRQTPGKGLEWVAVIWFDGSNENYVDSVKGRFTISRDNSKNTLYLQMNTLRAEDTAVYYCARDAWSYFDYWGQGTLVTVSS
VL: VIQLTQSPSSLSASVGDRVTITCRASQGISRALAWYQQKPGKGPKLLIYDASSLESGVPSRFSGSGSGTDFTLTISSLQPEDFATYYCQQFNSYPLTFGGGTKVEIK
B4: fully human anti-VAP-1 monoclonal antibody 3F10 (hybridoma-derived) (antibody, human IgG1, V domains shown)
VH: B3 VH with F30S, T40A, I51L, N59D, V61A, T85S, A100G, S102G
VL: B3 VL with V1A, G43A, S53N, S56R, Y94F
B5: recombinant fully human anti-VAP-1 antibody r8C10 (BTT-1023) (antibody, human IgG4 S228P, kappa, V domains shown)
VH: B3 VH
VL: VIQLTQSPSSLSASVGDRVTITCRASQGISRALAWYQQKPGKGPKLLIYDASSLESGVPSRFSGSGSGTDFTLTISSLQPEDFATYYCQQFNSYPLTFGGGTKVEIKR
notes: also called recombinant 8C10
B6: fully human anti-VAP-1 monoclonal antibody 5F12 (hybridoma-derived) (antibody, V domains shown)
VH: QVQLVDSGGDVVQPGRSLRLSCAASGFSFSRSGIHWVRQAPGKGLEWVAVIWYDGIYKYYADSVKGRFTISRDNSKNTLYLQMNSLRAEDTAVYYCAREKNWGIDYWGQGTLVTVSS
VL: DIQMTQSPSSLSASVGDRVTITCRASQGISSWLAWYQQKPEKAPKSLIYGASSLQSGVPSRFSGSGSGTDFTLTISSLQPEDFATYYCQQYNSYPRTFGQGTKVEIK

Tests used:
[1] = biological target: T1, recombinant human Vascular Adhesion …; assay: time-resolved immunofluorometric assay, plate coated with rhVAP-1, europium-conjugated anti-human antibody detection
Description: A time-resolved immunofluorometric assay was used quantitatively to examine the binding of 5F12, 4B3, 3F10, 8A4 and 8C10 to rhVAP-1. A microtiter plate was coated with rhVAP-1 and then blocked with bovine serum albumin solution. An amount of antibody between 2 and 4320 ng/ml was subsequently added to bind to rhVAP-1 and the bound antibody detected by a europium-conjugated mouse anti-human antibody (Perkin Elmer Inc.). The label was detected by measuring the time-resolved fluorescence (VICTOR³™ multilabel counter, PerkinElmer Inc.) at 615 nm. The fluorescence counts directly correlate with how much antibody was bound to its target. The sample data were then analyzed in comparison to the standard curve of a reference.

[2] = biological target: T1, recombinant human Vascular Adhesion …; assay: as above; remark: listed apart in the source
Description: A microtiter plate was coated with rhVAP-1 and then blocked with bovine serum albumin solution. […] The label was detected by measuring the time-resolved fluorescence (VICTOR³™ multilabel counter, PerkinElmer Inc.) at 615 nm. […] The sample data were then analyzed in comparison to the standard curve of a reference.

[3] = biological target: T1, recombinant human Vascular Adhesion …; assay: Biacore SPR, BTT-1023 captured on biotinylated protein G' on a streptavidin chip, rhVAP-1 as analyte
Description: Constant amounts of rhVAP-1 were used as an analyte for saturating concentration of mAbs (ligands). Experiments were performed using BIALITE® equipment (BIACORE® AB) and the data analyzed using Biacore software.

| Binder | Kd [1] [nM] | Kd [2] [nM] | Kd [3] [nM] |
| --- | --- | --- | --- |
| B1 | 0.28 |  |  |
| B2 | 0.31 |  |  |
| B3 | 0.21 |  |  |
| B4 | 0.25 |  |  |
| B5 |  | 0.38 | 0.13 |
| B6 | 0.65 |  |  |
